From PMC3159453 (Nucleic Acids Research, 2011)
Residue numbers refer to the chain shown, from its start. Blank lines part the entries; values can stand above or below the binder they belong to.

Columns and labels:
[1] = molecular target: T1, LexA repressor (wild type) (E. coli K-12 strain RW118, UniProt P0A7C2 1-202); test: cross-linking
T1 sequence (looked up): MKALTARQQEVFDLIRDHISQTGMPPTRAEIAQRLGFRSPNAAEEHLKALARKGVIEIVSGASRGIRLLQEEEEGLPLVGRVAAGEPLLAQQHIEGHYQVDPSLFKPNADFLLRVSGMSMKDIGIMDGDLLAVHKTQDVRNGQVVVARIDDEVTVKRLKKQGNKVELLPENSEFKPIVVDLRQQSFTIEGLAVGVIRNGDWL

[2] = molecular target: the molecule itself; test: cross-linking
[3] = molecular target: LexA A29R1 (LexA29) (Escherichia coli K-12 RW118, UniProt P0A7C2 1-202, A29C); test: EPR
[4] = molecular target: LexA G54R1 (LexA54) (Escherichia coli K-12 RW118, UniProt P0A7C2 1-202, G54C); test: EPR
[5] = molecular target: the molecule itself; test: cross-linking; remark: listed apart in the source
[6] = molecular target: the molecule itself; test: EPR

binding result [1]: binds
B1: LexA C-terminal fragment (CTD), product of self-cleavage (domain or fragment, E. coli K-12 strain RW118, UniProt P0A7C2 85-202, looked up)
chain: GEPLLAQQHIEGHYQVDPSLFKPNADFLLRVSGMSMKDIGIMDGDLLAVHKTQDVRNGQVVVARIDDEVTVKRLKKQGNKVELLPENSEFKPIVVDLRQQSFTIEGLAVGVIRNGDWL
binding result [2]: binds

B2: tisB operator 24 bp (Tis_1b/Tis_2b) (dsDNA)
DNA 1: TTTACTGTATAAATAAACAGTAAT
DNA 2: ATTACTGTTTATTTATACAGTAAA
binding result [3]: binds
binding result [4]: binds

B3: LexA54 (Gly54 replaced by Cys), oxidized (natural protein, E. coli K-12 strain RW118, UniProt P0A7C2 1-202, looked up)
chain: T1 sequence (looked up) with G54C
modifications: covalently bound at residue 54 after oxidation with 0.1 mM CuSO4 and 0.5 mM 1,10-phenantroline
binding result [5]: binds

B4: LexA29 spin labeled (A29R1) (natural protein, E. coli K-12 strain RW118, UniProt P0A7C2 1-202, looked up)
chain: T1 sequence (looked up) with A29C
modifications: MTSSL nitroxide spin label (R1) on the cysteine at position 29
binding result [6]: binds

B5: LexA54 spin labeled (G54R1) (natural protein, E. coli K-12 strain RW118, UniProt P0A7C2 1-202, looked up)
chain: T1 sequence (looked up) with G54C
modifications: MTSSL nitroxide spin label (R1) on the cysteine at position 54
binding result [6]: binds
